These results are taken from paper PMC10721843.

The stoichiometry N is a count of units in the complex or per binding partner.

The target of the experiment is T1, Human full-length TOP2B (topoisomerase II beta) (human), Q02880.
T1 chain: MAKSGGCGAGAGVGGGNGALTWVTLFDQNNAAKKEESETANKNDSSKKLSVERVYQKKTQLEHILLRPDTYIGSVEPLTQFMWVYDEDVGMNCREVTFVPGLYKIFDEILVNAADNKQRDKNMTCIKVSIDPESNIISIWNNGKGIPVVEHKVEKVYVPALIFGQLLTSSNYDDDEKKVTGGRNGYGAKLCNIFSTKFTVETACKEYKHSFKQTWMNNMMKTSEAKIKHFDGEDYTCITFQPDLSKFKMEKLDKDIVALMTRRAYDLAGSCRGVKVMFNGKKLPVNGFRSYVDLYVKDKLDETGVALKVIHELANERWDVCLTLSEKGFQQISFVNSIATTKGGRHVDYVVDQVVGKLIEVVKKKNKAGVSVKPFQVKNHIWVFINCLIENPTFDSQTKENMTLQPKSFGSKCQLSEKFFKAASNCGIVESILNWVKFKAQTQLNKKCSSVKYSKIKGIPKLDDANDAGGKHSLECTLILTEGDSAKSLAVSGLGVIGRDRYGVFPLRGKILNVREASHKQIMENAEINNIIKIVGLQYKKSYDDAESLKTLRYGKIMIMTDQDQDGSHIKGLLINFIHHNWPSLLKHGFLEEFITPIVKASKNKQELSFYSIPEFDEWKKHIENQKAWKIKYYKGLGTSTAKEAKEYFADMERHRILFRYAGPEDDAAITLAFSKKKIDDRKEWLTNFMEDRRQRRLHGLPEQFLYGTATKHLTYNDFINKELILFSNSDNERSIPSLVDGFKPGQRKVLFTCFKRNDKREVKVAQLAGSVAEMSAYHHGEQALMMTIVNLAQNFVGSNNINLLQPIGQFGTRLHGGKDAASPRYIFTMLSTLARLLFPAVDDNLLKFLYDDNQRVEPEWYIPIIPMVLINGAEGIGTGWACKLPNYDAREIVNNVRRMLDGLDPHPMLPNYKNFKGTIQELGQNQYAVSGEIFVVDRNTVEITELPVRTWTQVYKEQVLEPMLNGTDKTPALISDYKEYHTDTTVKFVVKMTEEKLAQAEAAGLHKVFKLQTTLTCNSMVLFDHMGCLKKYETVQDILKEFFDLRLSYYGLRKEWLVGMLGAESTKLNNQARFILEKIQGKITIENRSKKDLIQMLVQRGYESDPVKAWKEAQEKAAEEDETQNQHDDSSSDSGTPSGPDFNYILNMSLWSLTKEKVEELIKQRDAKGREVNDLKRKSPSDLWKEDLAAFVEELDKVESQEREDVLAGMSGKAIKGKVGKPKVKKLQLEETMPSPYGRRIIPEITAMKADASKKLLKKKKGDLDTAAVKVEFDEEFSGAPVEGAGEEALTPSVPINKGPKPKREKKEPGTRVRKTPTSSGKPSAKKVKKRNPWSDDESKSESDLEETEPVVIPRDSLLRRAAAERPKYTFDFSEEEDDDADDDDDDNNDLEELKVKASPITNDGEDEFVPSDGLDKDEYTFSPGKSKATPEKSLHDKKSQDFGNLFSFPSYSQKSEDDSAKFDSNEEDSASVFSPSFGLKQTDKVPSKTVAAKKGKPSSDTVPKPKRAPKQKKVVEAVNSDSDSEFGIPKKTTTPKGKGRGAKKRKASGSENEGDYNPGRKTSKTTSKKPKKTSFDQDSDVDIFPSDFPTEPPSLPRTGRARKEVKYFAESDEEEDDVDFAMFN
In words: cryo-EM structure; 8.3 uM TOP2B, 16.7 uM EGR1 TSS dsDNA (50 bp, -30 to +20) and 1.67 uM etoposide in 20 mM HEPES pH 8.0, 5 mM KCl, 5 mM MgCl2, 0.5 mM ATP; C2 symmetry imposed in 3D refinement (also reconstructed without it). The conditions noted are these: remark: other sources report otherwise.

B1: Human full-length TOP2B (topoisomerase II beta), Q02880 1-1626 (enzyme)
chain: T1 chain
B1 gave a stoichiometry N of 2.
